Assay results published in article PMC2583301.
Blank lines part the entries; values can stand above or below the substance they belong to.

Tests used:
[1] = target: H2A refolded in the absence of H2B (Xenopus laevis) (UniProt P06897); assay: AUC
[2] = target: yNap1 C200A/C249A/C272A labelled with Alexa dye at Cys-414 (yNap1m*) (yeast) (UniProt P25293); assay: other fluorescence titration
[3] = target: H2A/H2B(T112C) dimer, H2B labelled with Alexa dye (Xenopus laevis) (UniProt P06897); assay: other fluorescence titration

yNap1 C200A/C249A/C272A labelled with Alexa dye at Cys-414 (yNap1m*) (yeast), sequence (P25293 whole entry C200A/C249A/C272A): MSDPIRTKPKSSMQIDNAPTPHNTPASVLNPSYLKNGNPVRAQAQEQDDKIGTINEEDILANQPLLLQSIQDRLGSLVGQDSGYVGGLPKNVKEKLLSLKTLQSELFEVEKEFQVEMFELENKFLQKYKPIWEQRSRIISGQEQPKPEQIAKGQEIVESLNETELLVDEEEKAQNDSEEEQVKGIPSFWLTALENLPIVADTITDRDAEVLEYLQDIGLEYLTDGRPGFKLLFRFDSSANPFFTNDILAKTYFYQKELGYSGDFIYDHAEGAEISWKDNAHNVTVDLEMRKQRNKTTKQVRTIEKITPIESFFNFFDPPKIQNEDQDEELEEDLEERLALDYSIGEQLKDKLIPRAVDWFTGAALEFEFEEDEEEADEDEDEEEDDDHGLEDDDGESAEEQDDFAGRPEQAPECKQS
yeast nucleosome assembly protein 1 (yNap1), wild type, sequence (P25293 whole entry): as the sequence (P25293 whole entry C200A/C249A/C272A) above, with A200C, A249C, A272C counted along it

- stoichiometry N [1]: 2
Substance: H2A refolded in the absence of H2B (from UniProt P06897 1-130) (natural protein)

- stoichiometry N (H2A/H2B dimer per yNap1 monomer) [2]: 1
Substance: H2A/H2B dimer (major type, wild type) (from UniProt P06897;P02281) (complex)

- Kd [2]: 2.1 nM
Substance: Tailless H2A/H2B dimer (from UniProt P06897 15-119) (complex)

- Kd [3]: 1.3 nM
- Kd app (yNap1 counted as dimer) [3]: 0.7 nM
Substance: yeast nucleosome assembly protein 1 (yNap1), wild type (from UniProt P25293 1-417) (natural protein)
